Legend:
chicken lysozyme [1] = target: T1, chicken lysozyme (chicken, UniProt P00698 19-147); assay: ELISA on lysozyme, 100-fold dilution of the protein extract
T1 construct: also called Egg White Lysozyme

chicken lysozyme [2] = target: T1, chicken lysozyme; assay: ELISA, well coated with lysozyme (100 ug/ml) and blocked with ELK, ~50 ng iMab per well, anti-VSV-HRP; urea purification
chicken lysozyme [3] = target: T1, chicken lysozyme; assay: ELISA
bovine lactoferrin = target: T2, bovine lactoferrin (bovine, UniProt P24627 20-708); assay: not described at this place
T2 construct: also called LF
T2 sequence (P24627 20-708 limits assumed): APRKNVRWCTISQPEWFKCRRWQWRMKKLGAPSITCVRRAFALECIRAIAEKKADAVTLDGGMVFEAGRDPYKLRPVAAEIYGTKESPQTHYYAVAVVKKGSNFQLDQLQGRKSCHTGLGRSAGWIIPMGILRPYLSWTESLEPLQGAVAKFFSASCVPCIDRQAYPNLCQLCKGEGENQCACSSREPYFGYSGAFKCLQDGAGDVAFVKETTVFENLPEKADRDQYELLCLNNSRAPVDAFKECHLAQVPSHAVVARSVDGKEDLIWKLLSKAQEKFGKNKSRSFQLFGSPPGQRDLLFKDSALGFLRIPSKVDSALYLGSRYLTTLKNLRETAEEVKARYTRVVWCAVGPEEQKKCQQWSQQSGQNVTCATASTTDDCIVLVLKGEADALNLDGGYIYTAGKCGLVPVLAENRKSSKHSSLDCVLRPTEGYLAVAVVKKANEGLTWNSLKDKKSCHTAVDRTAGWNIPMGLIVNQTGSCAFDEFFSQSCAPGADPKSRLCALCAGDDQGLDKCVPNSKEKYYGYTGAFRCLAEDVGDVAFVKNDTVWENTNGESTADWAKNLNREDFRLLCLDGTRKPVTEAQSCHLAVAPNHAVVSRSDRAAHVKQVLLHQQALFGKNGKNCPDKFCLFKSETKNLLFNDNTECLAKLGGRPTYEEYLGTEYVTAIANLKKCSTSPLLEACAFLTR

T1 sequence (P00698 19-147 limits assumed): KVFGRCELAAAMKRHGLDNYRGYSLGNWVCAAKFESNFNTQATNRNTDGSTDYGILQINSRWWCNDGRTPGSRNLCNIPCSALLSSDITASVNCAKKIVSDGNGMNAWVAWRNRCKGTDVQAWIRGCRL

Row | Binder | Absorbtion (450 nm) (chicken lysozyme [2]) | binding result (bovine lactoferrin) | also measured
1 | iMab111 (designed binder, iMab100 derivative with two extra cysteines in the core; E. coli, CM126) NVKLVCKGGNFVENDDDLKLTCRAEGYTIGPYCMGWFRQAPNDDSTNVATINMGGGITYYGDSVKERFDIRRDNASNTVTLSMDDLQPEDSAEYNCAGDSTIYASYYECGHGLSTGGYGYDSHYRCQGTDVTVSS | 0.42 absorbance at 450 nm | – | signal over background signal (fold) (chicken lysozyme [1]): ~20 fold
2 | iMab115 (designed binder, iMab100 with the asparagine of the putative N-glycosylation site in AR3 changed to glutamine; expressed in E. coli as a 21 kD protein; also called iMab15) NVKLVEKGGNFVENDDDLKLTCRAEGYTIGPYCMGWFRQAPNDDSTNVATINMGGGITYYGDSVKERFDIRRDQASNTVTLSMDDLQPEDSAEYNCAGDSTIYASYYECGHGLSTGGYGYDSHYRGQGTDVTVSS | – | – | binding result (chicken lysozyme [3]): binds
3 | iMab116 (designed binder, iMab100 derivative lacking one core cysteine; E. coli, CM126; also called iMab16; not shown: C-terminal linker, VSV tag and 6x His tag of vector CM126) NVKLVEKGGNFVENDDDLKLTCRAEGYTIGPYCMGWFRQAPNDDSTNVATINMGGGITYYGDSVKERFDIRRDNASNTVTLSMDDLQPEDSAEYNGAGDSTIYGSYYECGHGLSTGGYGYDSHYRGQGTDVTVSS | 0.238 absorbance at 450 nm | – | –
4 | iMab142-xx-0002 (designed binder, not shown: small tags and cut ends, also called iMab142-xx-002) MNVKLVEKGGNFVENDDDLKLTCRAEGYTIGPYSMGWFRQAPNDDSTNVSCINMGGGITYYGDSVKERFDIRRDNASNTVTLSMDDLQPEDSAVYNCAADWWDGFTYGSTWYNPSSYDYRGQGTDVTVSS | – | binds | –
5 | iMab148-xx-0002 (designed binder, Derivative of iMab142-xx-0002 in which all lysine residues were replaced; xx = C-terminal tag not specified) MNVHLVERGGNFVENDDDLNLTCRAEGYTIGPYSMGWFRQAPNDDSTNVATINMGGGITYYGDSVDERFDIRRDNASNTVTLSMDDLQPEDSAVYNCAADWWDGFTYGSTWYNPSSYDYRGQGTDVTVSS | – | binds | –
6 | iMab122 (designed binder, 9 beta-strand iMab; E. coli, CM126; not shown: C-terminal linker, VSV tag and 6x His tag of vector CM126) NVKLVEKGGNFVENDDDLKLTCRASGRTFSSRTMGWFRQAPNDDSTNVATIRWNGGSTYYTNYGDSVKERFDIRVDQASNTVTLSMDDLQPEDSAEYNCAGTDIGDGWSGRYDYRGQGTDVTVSS | 0.271 absorbance at 450 nm | – | –

Source: US20060140889A1 (L MABS B V, published 2006)
